Assay results: patent publication US10464978B2, “Peptides and combination of peptides for use in immunotherapy against ovarian cancer and other cancers” (immatics biotechnologies GmbH, priority 2015, dated 2019)

Molecular target: HLA-A*02:01 (Homo sapiens, UniProt P04439, D140Y/D185E/D98H/E176V/E277Q/G131W/G231S/I119V/I121R/I166T/I218V/L300P/L318F/N151K/N90K/P208A/P217A/Q86G/Q94H/R138H/R169H/T345S)
Test: MHC binding assay: UV-ligand exchange with beta2m ELISA (peptide exchange yield)
Conditions: binding to HLA-A*02:01
Summary of the method: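 Values give exchange yield, measured by β2m ELISA: 100-fold-diluted monomers bound to streptavidin plates (1h, 37° C), probed with HRP anti-β2m at 2 ug/ml and read at 450 nm after TMB. Monomers came from UV-triggered cleavage of a photolabile peptide and exchange for the test peptide.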

Row | Substance | Peptide exchange (MHC class I binding score, peptide exchange yield)
1 | 426 (RLADKSVLV; listed as Homo sapiens) [compound 426] | “+++” (≥50 = +++)
2 | 319 (SLEPQIQPV; listed as Homo sapiens) [compound 319] | “++” (≥20% = ++)
3 | 517 (LLMPIPEGLTL; listed as Homo sapiens) [compound 517] | “+++” (≥50 = +++)
4 | 572 (ALADLIEKELSV; listed as Homo sapiens) [compound 572] | “+++” (≥50 = +++)
5 | 118 (KLIDNNINV; listed as Homo sapiens) [compound 118] | “+++” (≥50 = +++)
6 | 66 (FLDENIGGVAV; listed as Homo sapiens) [compound 66] | “+++” (≥50 = +++)
7 | 17 (GLLPGDRLVSV; listed as Homo sapiens) [compound 17] | “+++” (≥50 = +++)
8 | 579 (NLMEMVAQL; listed as Homo sapiens) [compound 579] | “++” (≥20% = ++)
9 | 5 (HLTEVYPEL; listed as Homo sapiens) [compound 5] | “+++” (≥50 = +++)
10 | 552 (GLLDLPFRVGV; listed as Homo sapiens) [compound 552] | “++++” (≥75% = ++++)
11 | 10 (FLATFPLAAV; listed as Homo sapiens) [compound 10] | “++++” (≥75% = ++++)
12 | 592 (RLLSAAENFL; listed as Homo sapiens) [compound 592] | “+++” (≥50 = +++)
13 | 53 (KMIETDILQKV; listed as Homo sapiens) [compound 53] | “++++” (≥75% = ++++)
14 | 117 (ILPDGEDFLAV; listed as Homo sapiens) [compound 117] | “+++” (≥50 = +++)
15 | 371 (FLQAHLHTA; listed as Homo sapiens) [compound 371] | “++++” (≥75% = ++++)
16 | 322 (TLMTSLPAL; listed as Homo sapiens) [compound 322] | “+++” (≥50 = +++)
17 | 490 (FLLQHVQEL; listed as Homo sapiens) [compound 490] | “+++” (≥50 = +++)
18 | 359 (YLLPESVDL; listed as Homo sapiens) [compound 359] | “+++” (≥50 = +++)
19 | 493 (GLLGEKTQDLIGV; listed as Homo sapiens) [compound 493] | “+++” (≥50 = +++)
20 | 580 (LLMENAERV; listed as Homo sapiens) [compound 580] | “++” (≥20% = ++)
21 | 595 (VLLSIYPRV; listed as Homo sapiens) [compound 595] | “+++” (≥50 = +++)
22 | 529 (LLADELITV; listed as Homo sapiens) [compound 529] | “+++” (≥50 = +++)
23 | 124 (ALYETELADA; listed as Homo sapiens) [compound 124] | “++” (≥20% = ++)

Row | Substance | Peptide exchange (MHC class I binding score, peptide exchange yield)
24 | 519 (GLLHLTLLL; listed as Homo sapiens) [compound 519] | “+++” (≥50 = +++)
25 | 72 (SLLELDGINL; listed as Homo sapiens) [compound 72] | “+++” (≥50 = +++)
26 | 546 (VMIAGKVAVV; listed as Homo sapiens) [compound 546] | “+++” (≥50 = +++)
27 | 75 (GLLEVMVNL; listed as Homo sapiens) [compound 75] | “+++” (≥50 = +++)
28 | 67 (TLLAEALVTV; listed as Homo sapiens) [compound 67] | “+++” (≥50 = +++)
29 | 92 (YLIPFTGIVGL; listed as Homo sapiens) [compound 92] | “++” (≥20% = ++)
30 | 374 (FLLQQHLISA; listed as Homo sapiens) [compound 374] | “++” (≥20% = ++)
31 | 155 (RVANLHFPSV; listed as Homo sapiens) [compound 155] | “+++” (≥50 = +++)
32 | 327 (GLAPFTEGISFV; listed as Homo sapiens) [compound 327] | “+++” (≥50 = +++)
33 | 469 (YLASDEITTV; listed as Homo sapiens) [compound 469] | “+++” (≥50 = +++)
34 | 74 (ALLDPEVLSIFV; listed as Homo sapiens) [compound 74] | “+++” (≥50 = +++)
35 | 237 (ALLEASGTLLL; listed as Homo sapiens) [compound 237] | “++++” (≥75% = ++++)
36 | 312 (IISDLTIAL; listed as Homo sapiens) [compound 312] | “+++” (≥50 = +++)
37 | 250 (ALSEEGLLVYL; listed as Homo sapiens) [compound 250] | “+++” (≥50 = +++)
38 | 276 (ALFTFSPLTV; listed as Homo sapiens) [compound 276] | “+++” (≥50 = +++)
39 | 479 (SLFGNSGILENV; listed as Homo sapiens) [compound 479] | “+++” (≥50 = +++)
40 | 26 (ALLELAEEL; listed as Homo sapiens) [compound 26] | “+++” (≥50 = +++)
41 | 263 (LLVSNLDFGV; listed as Homo sapiens) [compound 263] | “+++” (≥50 = +++)
42 | 243 (LLLNELPSV; listed as Homo sapiens) [compound 243] | “+++” (≥50 = +++)
43 | 398 (KLLEEDGTIITL; listed as Homo sapiens) [compound 398] | “++” (≥20% = ++)
44 | 29 (KMLGIPISNILMV; listed as Homo sapiens) [compound 29] | “+++” (≥50 = +++)
45 | 239 (AAFAGKLLSV; listed as Homo sapiens) [compound 239] | “+++” (≥50 = +++)
46 | 173 (LLDSASAGLYL; listed as Homo sapiens) [compound 173] | “+++” (≥50 = +++)
